Patent US20220273767A1 (SYNTHORX, published 2022)

Key:
[1] = target: T1, IL-10 receptor signaling complex on mouse splenocytes (CD8 T cells, NK cells, B cells) (mouse, UniProt Q61727 17-575; Q61190 20-349); assay: cell-based or functional assay
T1 sequence (looked up) 1: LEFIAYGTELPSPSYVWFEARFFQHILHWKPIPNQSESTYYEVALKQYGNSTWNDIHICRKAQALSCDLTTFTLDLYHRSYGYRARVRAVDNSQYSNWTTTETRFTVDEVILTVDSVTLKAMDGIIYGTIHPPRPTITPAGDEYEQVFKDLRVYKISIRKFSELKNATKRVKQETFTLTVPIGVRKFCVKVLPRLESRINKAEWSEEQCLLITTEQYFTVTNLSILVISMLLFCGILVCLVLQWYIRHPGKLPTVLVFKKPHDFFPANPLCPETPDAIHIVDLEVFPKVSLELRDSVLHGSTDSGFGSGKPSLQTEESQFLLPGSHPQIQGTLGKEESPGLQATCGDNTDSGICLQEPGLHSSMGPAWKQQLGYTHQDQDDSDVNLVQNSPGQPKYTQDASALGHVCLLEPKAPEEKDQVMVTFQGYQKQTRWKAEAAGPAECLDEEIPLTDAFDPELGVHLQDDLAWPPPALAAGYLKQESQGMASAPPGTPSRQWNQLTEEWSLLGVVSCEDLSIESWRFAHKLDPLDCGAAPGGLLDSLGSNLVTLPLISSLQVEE
T1 sequence (looked up) 2: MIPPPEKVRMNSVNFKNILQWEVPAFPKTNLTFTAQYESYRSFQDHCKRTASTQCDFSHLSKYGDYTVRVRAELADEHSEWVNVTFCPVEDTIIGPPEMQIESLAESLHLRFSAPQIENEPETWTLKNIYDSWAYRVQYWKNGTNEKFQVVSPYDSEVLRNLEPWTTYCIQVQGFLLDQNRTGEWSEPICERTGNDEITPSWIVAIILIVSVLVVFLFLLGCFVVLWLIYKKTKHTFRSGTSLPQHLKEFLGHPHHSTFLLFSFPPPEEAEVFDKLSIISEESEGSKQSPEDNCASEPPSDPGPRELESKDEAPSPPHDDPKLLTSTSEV

[2] = target: T1, IL-10 receptor signaling complex on …; assay: cell-based or functional assay; remark: listed apart in the source

EC50, STAT3 phosphorylation, B cells, Balb/c mouse splenocytes [1]: 1.3 ng/mL
EC50, STAT3 phosphorylation, CD8 T cells, Balb/c mouse splenocytes [1]: 4.07 ng/mL
EC50, STAT3 phosphorylation, NK cells, Balb/c mouse splenocytes [1]: 1.08 ng/mL
EC50, STAT3 phosphorylation, B cells, B57BL/6 mouse splenocytes [2]: 0.83 ng/mL
EC50, STAT3 phosphorylation, CD8 T cells, B57BL/6 mouse splenocytes [2]: 3.65 ng/mL
EC50, STAT3 phosphorylation, NK cells, B57BL/6 mouse splenocytes [2]: 1.06 ng/mL
B1: Wild-type His-IL-10 (ligand)
chain: MHHHHHHGSSENLYFQSPGQGTQSENSCTHFPGNLPNMLRDLRDAFSRVKTFFQMKDQLDNLLLKESLLEDFKGYLGCQALSEMIQFYLEEVMPQAENQDPDIKAHVNSLGENLKTLRLRLRRCHRFLPCENKSKAVEQVKNAFNKLQEKGIYKAMSEFDIFINYIEAYMTMKIRN
